Data on two molecules can be found in US20120107297A1 (KOREA RESEARCH INSTITUTE OF BIOSCIENCE AND BIOTECHNOLOGY, published 2012).

The chains are these.
B1: UCP (endogenous E2EPF ubiquitin carrier protein) (enzyme, human, UniProt Q16763 1-222, looked up)
chain: MNSNVENLPPHIIRLVYKEVTTLTADPPDGIKVFPNEEDLTDLQVTIEGPEGTPYAGGLFRMKLLLGKDFPASPPKGYFLTKIFHPNVGANGEICVNVLKRDWTAELGIRHVLLTIKCLLIHPNPESALNEEAGRLLLENYEEYAARARLLTEIHGGAGGPSGRAEAGRALASGTEASSTDPGAPGGPGGAEGPMAKKHAGERDKKLAAKKKTDKKRALRRL
notes: Endogenous protein in cell lysates; also called E2EPF-UCP; endogenous UCP

In experiment [1] the target is T1, VHL E3 ligase complex (comprising VHL, Elongin B, Elongin C and Rbx1) (human, UniProt P40337 1-213; Q15370 1-118; Q15369 1-112; P62877 1-108).
T1 construct: also called VHL E3 ubiquitin ligase complex
In words: sucrose density gradient centrifugation of cell lysate, Western blot of fractions. As to the method: (§1) CAKI (kidney cancer cell line) or HepG2 (liver cancer cell line) cells were collected from 10 100 mm culture dishes and frozen at −70° C. The frozen cells were lysed in 0.5 ml of a cell lysis buffer (50 mM Tris, 0.5 mM EDTA, 50 mM KCl, 10% glycerol, 1 mM DTT, 0.5% NP-40, 0.5 mM PMSF). The cell lysate was loaded in 10 ml of 5%-20% sucrose density gradient solution, followed by ultra-centrifugation at 35,000 rpm for 16 hours.

The target in another experiment is Rbx1 (endogenous) (human, UniProt P62877 1-108). The experiment is described as follows: summary sentence citing FIG. 7 and FIG. 8b. As for the experimental part:
as §1

The target of a further experiment is Elongin C (endogenous) (human, UniProt Q15369 1-112). In words: summary sentence citing FIG. 7 and FIG. 8b. As to the method:
as §1

Experiment [2] concerns the target B1. The experiment is described as follows: summary sentence citing FIG. 7 and FIG. 8b. As to the method:
as §1

T1 sequence (P40337 whole entry, chain 1 of 3): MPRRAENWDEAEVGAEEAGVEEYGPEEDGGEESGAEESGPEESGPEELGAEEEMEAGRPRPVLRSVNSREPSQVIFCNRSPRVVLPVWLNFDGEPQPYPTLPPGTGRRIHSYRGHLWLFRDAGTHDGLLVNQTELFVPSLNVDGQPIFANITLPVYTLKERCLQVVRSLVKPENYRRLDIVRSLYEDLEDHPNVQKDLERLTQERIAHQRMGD
T1 sequence (Q15369 whole entry, chain 3 of 3): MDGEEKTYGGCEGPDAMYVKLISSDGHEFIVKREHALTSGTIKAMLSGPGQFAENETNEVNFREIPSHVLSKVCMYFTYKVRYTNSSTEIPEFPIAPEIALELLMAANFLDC
T1 sequence (P62877 whole entry, chain 4 of 3): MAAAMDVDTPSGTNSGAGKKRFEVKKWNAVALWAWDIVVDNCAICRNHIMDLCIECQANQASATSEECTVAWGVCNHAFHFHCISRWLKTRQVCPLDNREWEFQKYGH
Elongin C (endogenous), sequence (Q15369 whole entry): as the sequence (Q15369 whole entry, chain 3 of 3) above
Rbx1 (endogenous), sequence (P62877 whole entry): as the sequence (P62877 whole entry, chain 4 of 3) above

On to B1, for which the binding result (in experiment [1]; with Rbx1 (endogenous); with Elongin C (endogenous)) was “no binding” in each case.

B2: Elongin B (endogenous) (other, human, UniProt Q15370 1-118, looked up)
chain: MDVFLMIRRHKTTIFTDAKESSTVFELKRIVEGILKRPPDEQRLYKDDQLLDDGKTLGECGFTSQTARPQAPATVGLAFRADDTFEALCIEPFSSPPELPDVMKPQDSGSSANEQAVQ
With B2, the binding result in experiment [2] is “no binding”.
